The results in this text go back to paper doi:10.1101/062877.

Common to all, as to experiment: single-molecule TIRF microscopy of live cells
The target of experiment [1] is DNA-CAR (DNA-based chimeric antigen receptor; HA-tagged non-fluorescent version, pHR-DNA-CAR-IRES-puro) (UniProt P42081).
Experiment [2] shares this target. The source holds these as a separate data set.
The target is the same in experiment [3]. The source holds these as a separate data set.

Like-named read-outs stand apart in the source and are kept apart here.

ZAP70-GFP, sequence (P43403 whole entry): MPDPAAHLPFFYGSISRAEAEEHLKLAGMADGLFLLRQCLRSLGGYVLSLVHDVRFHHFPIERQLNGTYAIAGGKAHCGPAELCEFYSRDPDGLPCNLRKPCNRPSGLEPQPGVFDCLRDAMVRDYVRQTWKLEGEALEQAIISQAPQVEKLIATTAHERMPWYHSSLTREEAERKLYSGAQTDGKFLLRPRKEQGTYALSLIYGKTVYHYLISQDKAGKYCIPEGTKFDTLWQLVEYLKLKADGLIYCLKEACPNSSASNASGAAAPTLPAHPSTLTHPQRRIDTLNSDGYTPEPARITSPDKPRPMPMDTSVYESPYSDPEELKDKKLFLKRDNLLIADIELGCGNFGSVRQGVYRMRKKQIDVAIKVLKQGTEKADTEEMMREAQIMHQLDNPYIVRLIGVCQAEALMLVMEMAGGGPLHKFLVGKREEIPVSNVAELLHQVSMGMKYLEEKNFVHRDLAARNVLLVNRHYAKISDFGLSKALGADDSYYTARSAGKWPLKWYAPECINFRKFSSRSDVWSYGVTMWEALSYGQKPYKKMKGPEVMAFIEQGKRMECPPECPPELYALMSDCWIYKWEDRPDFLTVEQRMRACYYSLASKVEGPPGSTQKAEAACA

In experiment [1], “ZAP70-GFP (from UniProt P43403 1-619) (enzyme)” came in with a duration of ZAP70-GFP recruitment at a single ligated receptor of under 20 s, a half-life of the bound time on a single ligated receptor of 10 s, a percent of receptor-ligand clusters of 3 or more ligands that recruit ZAP70-GFP of 83% and a percent of single bound ligand-receptors that recruit ZAP70-GFP of 6.3%. Further, the percent of single bound receptors that recruit ZAP70-GFP in experiment [1] was 20%. Also, in experiment [2], the percent of receptor-ligand clusters of 3 or more ligands that recruit ZAP70-GFP was determined as 53% and the percent of single bound ligands that recruit ZAP70-GFP worked out at 2%. In experiment [3], this substance showed a percent of single bound ligand-receptors that recruit ZAP70-GFP of 2.2%.
